Test system: Escherichia coli TOP10
Assay: shrunken log2 fold change of peptide-encoding DNA abundance (4.5 h post-induction vs induction); higher = less antimicrobial activity (less host growth inhibition)
Conditions: time post-induction: 4.5 h; library: site-saturation at positions 5, 18, 19, 20
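Further: peptides expressed intracellularly from a pBAD plasmid library in pooled LB shake-flask culture, induced with 0.3% L-arabinose, DNA abundance read by NGS, three biological replicates, DESeq2 with apeglm shrinkage.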

Sequence	shrunken log2 fold change
RRIRARPPRLPRPRPRPAEQPRP	0.728
RRIRNRPPRLPRPRPRPSGIPRP	-0.983
RRIRQRPPRLPRPRPRPSIHPRP	-0.451
RRIRNRPPRLPRPRPRPMWGPRP	-0.018
RRIRQRPPRLPRPRPRPLIPPRP	0.114
RRIRVRPPRLPRPRPRPTVTPRP	0.167
RRIRCRPPRLPRPRPRPAQGPRP	0.631
RRIRMRPPRLPRPRPRPDFCPRP	0.0837
RRIRKRPPRLPRPRPRPAEMPRP	-0.00753
RRIRHRPPRLPRPRPRPRDAPRP	0.14
RRIRVRPPRLPRPRPRPPFEPRP	0.26
RRIRGRPPRLPRPRPRPMAKPRP	0.658
RRIRCRPPRLPRPRPRPDWAPRP	0.0311
RRIRCRPPRLPRPRPRPQDRPRP	-0.175
RRIRYRPPRLPRPRPRPVKIPRP	-0.0138
RRIRNRPPRLPRPRPRPEFRPRP	-0.107
RRIRPRPPRLPRPRPRPEWAPRP	2.06
RRIRWRPPRLPRPRPRPGGCPRP	0.732
RRIRVRPPRLPRPRPRPIGDPRP	0.0238
RRIRTRPPRLPRPRPRPRPAPRP	0.555
RRIRARPPRLPRPRPRPPDDPRP	1.2
RRIRIRPPRLPRPRPRPPTSPRP	-0.172
RRIRRRPPRLPRPRPRPKFPPRP	0.361

Sequence	shrunken log2 fold change
RRIRYRPPRLPRPRPRPKRFPRP	0.00705
RRIRYRPPRLPRPRPRPVEIPRP	-0.00968
RRIRARPPRLPRPRPRPWHNPRP	-0.0874
RRIRMRPPRLPRPRPRPIVIPRP	-0.0284
RRIRPRPPRLPRPRPRPDGPPRP	-0.101
RRIRTRPPRLPRPRPRPDVCPRP	0.11
RRIRARPPRLPRPRPRPAFPPRP	0.532
RRIRPRPPRLPRPRPRPMAPPRP	-0.0483
RRIRDRPPRLPRPRPRPHVDPRP	0.07
RRIRWRPPRLPRPRPRPMGTPRP	-0.00133
RRIRHRPPRLPRPRPRPHDRPRP	-0.218
RRIRPRPPRLPRPRPRPHPLPRP	0.0451
RRIRERPPRLPRPRPRPRFHPRP	-0.447
RRIRFRPPRLPRPRPRPAVWPRP	0.402
RRIRCRPPRLPRPRPRPFTLPRP	-0.048
RRIRPRPPRLPRPRPRPADMPRP	0.0113
RRIRVRPPRLPRPRPRPFGHPRP	0.13
RRIRHRPPRLPRPRPRPWNGPRP	-0.228
RRIRWRPPRLPRPRPRPVMNPRP	-0.133
RRIRIRPPRLPRPRPRPFCRPRP	0.087
RRIRFRPPRLPRPRPRPDWVPRP	0.0788
RRIRYRPPRLPRPRPRPKIFPRP	-0.297
RRIRARPPRLPRPRPRPHLTPRP	-0.145

Sequence	shrunken log2 fold change
RRIRYRPPRLPRPRPRPVIFPRP	-0.331
RRIRQRPPRLPRPRPRPNFKPRP	-0.235
RRIRDRPPRLPRPRPRPDAMPRP	-0.107
RRIRKRPPRLPRPRPRPELDPRP	0.121
RRIRNRPPRLPRPRPRPRMPPRP	-0.0444
RRIRYRPPRLPRPRPRPYCDPRP	-0.379
RRIRARPPRLPRPRPRPDCIPRP	0.446
RRIRFRPPRLPRPRPRPIEPPRP	0.242
RRIRHRPPRLPRPRPRPESTPRP	0.0536
RRIRIRPPRLPRPRPRPKLPPRP	0.0199
RRIRLRPPRLPRPRPRPPVGPRP	1.42
RRIRSRPPRLPRPRPRPQCRPRP	-0.0553
RRIRCRPPRLPRPRPRPWREPRP	0.13
RRIRDRPPRLPRPRPRPVMRPRP	0.592
RRIRERPPRLPRPRPRPVIQPRP	0.0166
RRIRTRPPRLPRPRPRPQRHPRP	0.19
RRIRPRPPRLPRPRPRPLWTPRP	0.0798
RRIRWRPPRLPRPRPRPDDEPRP	0.606
RRIRWRPPRLPRPRPRPAIWPRP	0.596
RRIRLRPPRLPRPRPRPKEHPRP	0.227
RRIRSRPPRLPRPRPRPKPFPRP	-0.646
RRIRERPPRLPRPRPRPPRGPRP	0.519
RRIRSRPPRLPRPRPRPNEMPRP	-0.252

Sequence	shrunken log2 fold change
RRIRRRPPRLPRPRPRPQSAPRP	0.123
RRIRVRPPRLPRPRPRPIDYPRP	0.0808
RRIRERPPRLPRPRPRPMQMPRP	-0.254
RRIRHRPPRLPRPRPRPKKAPRP	0.0601
RRIRLRPPRLPRPRPRPVVRPRP	0.148
RRIRIRPPRLPRPRPRPCCKPRP	-0.398
RRIRPRPPRLPRPRPRPWLNPRP	-0.541
RRIRERPPRLPRPRPRPTLVPRP	-0.0681
RRIRVRPPRLPRPRPRPGAFPRP	0.0224
RRIRIRPPRLPRPRPRPNCCPRP	-0.0793
RRIRLRPPRLPRPRPRPFIAPRP	-0.496
RRIRKRPPRLPRPRPRPSAGPRP	0.227
RRIRDRPPRLPRPRPRPVDLPRP	0.0194
RRIRLRPPRLPRPRPRPGRLPRP	0.0389
RRIRGRPPRLPRPRPRPWCSPRP	-0.0965
RRIRNRPPRLPRPRPRPHSMPRP	-0.027
RRIRSRPPRLPRPRPRPVEFPRP	-0.928
RRIRMRPPRLPRPRPRPNKCPRP	0.216
RRIRKRPPRLPRPRPRPEAPPRP	0.957
RRIRERPPRLPRPRPRPGINPRP	-0.249
RRIRCRPPRLPRPRPRPPTTPRP	0.353
RRIRYRPPRLPRPRPRPEYKPRP	-0.856

Source: the supplement of paper PMC9112550, “Optimization of the antimicrobial peptide Bac7 by deep mutational scanning” (BMC Biology, 2022)
